Measurements: patent US20250051474A1, “ANTI-CD97 ANTIBODIES AND ANTIBODY-DRUG CONJUGATES” (New York University, priority 2023, published 2025)

Columns and labels:
[1] = molecular target: T1, CD97 (ADGRE5) isoform 2 ectodomain, purified and biotinylated (human, UniProt P48960 21-552, biotinylated in vitro using the BirA enzyme); experiment: bead-based binding titration (biotinylated antigen on streptavidin beads, flow cytometry), 1:1 fit
T1 construct: the whole entry for isoform 2 is named here; also called CD97 isoform 2
T1 sequence: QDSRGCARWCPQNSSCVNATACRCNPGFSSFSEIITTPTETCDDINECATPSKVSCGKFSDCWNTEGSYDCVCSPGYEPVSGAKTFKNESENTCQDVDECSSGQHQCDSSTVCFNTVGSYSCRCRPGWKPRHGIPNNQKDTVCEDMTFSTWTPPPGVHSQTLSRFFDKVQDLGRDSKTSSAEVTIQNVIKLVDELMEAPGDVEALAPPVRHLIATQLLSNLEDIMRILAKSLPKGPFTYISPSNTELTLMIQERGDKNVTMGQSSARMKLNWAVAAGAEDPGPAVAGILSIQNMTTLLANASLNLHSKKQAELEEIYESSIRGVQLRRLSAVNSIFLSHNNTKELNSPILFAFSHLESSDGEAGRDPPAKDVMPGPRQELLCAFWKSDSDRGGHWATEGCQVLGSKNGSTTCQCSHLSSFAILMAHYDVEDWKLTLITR

[2] = molecular target: T2, CD97 (ADGRE5) isoform 1 ectodomain, purified and biotinylated (human, UniProt P48960 21-552, limits assumed, biotinylated in vitro using the BirA enzyme); experiment: as above
T2 construct: the whole entry for isoform 1 is named here; also called CD97 isoform 1; Biotinylated CD97 isoform 1
T2 sequence: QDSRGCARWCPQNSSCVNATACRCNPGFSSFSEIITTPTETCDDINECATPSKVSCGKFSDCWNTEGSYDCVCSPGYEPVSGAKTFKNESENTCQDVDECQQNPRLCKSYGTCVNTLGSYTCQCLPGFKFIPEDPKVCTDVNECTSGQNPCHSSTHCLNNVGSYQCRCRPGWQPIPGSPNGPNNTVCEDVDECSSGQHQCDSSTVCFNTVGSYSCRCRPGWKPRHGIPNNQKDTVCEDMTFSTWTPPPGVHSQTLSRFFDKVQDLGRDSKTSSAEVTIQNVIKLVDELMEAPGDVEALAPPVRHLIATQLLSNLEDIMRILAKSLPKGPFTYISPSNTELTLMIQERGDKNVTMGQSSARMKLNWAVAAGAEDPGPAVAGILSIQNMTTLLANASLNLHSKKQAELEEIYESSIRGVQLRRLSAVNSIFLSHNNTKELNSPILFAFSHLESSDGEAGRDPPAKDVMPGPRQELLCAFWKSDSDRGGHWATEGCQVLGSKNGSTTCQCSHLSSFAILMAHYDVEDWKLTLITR

[3] = molecular target: T3, CD97 GAIN mutant T524K expressed on ExpiCHO cells (human, UniProt P48960 21-835); experiment: cell-based binding assay: CD97 GAIN mutant T524K transiently expressed on ExpiCHO cells, A8 Fab titrated, flow cytometry MFI; lower panel
T3 construct: numbering of isoform 1; whole entry named
T3 sequence: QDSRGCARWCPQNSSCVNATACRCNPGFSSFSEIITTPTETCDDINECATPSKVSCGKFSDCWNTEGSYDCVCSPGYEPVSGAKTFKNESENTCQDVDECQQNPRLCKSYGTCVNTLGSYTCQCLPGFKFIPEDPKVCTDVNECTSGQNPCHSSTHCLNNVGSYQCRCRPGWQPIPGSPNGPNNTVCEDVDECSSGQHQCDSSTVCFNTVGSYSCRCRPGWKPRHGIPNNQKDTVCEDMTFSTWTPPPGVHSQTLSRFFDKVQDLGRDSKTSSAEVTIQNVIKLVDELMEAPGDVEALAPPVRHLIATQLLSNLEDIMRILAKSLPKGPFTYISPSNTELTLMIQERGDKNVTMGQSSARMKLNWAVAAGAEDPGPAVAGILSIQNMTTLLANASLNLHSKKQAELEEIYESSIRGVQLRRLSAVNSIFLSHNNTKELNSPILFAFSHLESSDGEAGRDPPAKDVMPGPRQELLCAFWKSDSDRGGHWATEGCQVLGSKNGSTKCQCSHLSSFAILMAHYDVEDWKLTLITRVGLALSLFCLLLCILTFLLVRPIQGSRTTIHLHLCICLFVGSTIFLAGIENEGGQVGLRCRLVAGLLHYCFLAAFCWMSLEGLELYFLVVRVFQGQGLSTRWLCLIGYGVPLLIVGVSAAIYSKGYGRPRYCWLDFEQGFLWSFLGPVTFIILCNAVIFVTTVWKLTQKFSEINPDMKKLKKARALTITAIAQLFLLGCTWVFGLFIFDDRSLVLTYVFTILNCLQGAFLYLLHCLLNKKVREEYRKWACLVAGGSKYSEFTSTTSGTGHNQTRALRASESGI
Description: (§1) KD values were determined from the curve fitting of a 1:1 binding model.

[4] = molecular target: T2, CD97 (ADGRE5) isoform 1 ectodomain, …; experiment: bead-based binding assay: biotinylated CD97 isoform 1 on streptavidin beads, Fab titrated, flow cytometry MFI, 1:1 fit; EXPERIMENT 1
Description: as §1

[5] = molecular target: T2, CD97 (ADGRE5) isoform 1 ectodomain, …; experiment: bead-based binding assay: biotinylated CD97 isoform 1 on streptavidin beads, Fab titrated, flow cytometry MFI, 1:1 fit; EXPERIMENT 2
Description: as §1

- Kd [1]: 2.2 nM
- Kd [2]: 2.4 nM
- binding result [3]: no binding (tested: 1000 nM)
- Kd [4]: 16 nM
- Kd [5]: 9.5 nM
B1: Antibody clone A8, Fab format (Fab, V domains shown)
VH: EVQLVESGGGLVQPGGSLRLSCAASGFTISSYSIHWVRQAPGKGLEWVASISPYYGSTSYADSVKGRFTISADTSKNTAYLQMNSLRAEDTAVYYCARSWYYYEQNPYWYQKEEQALDYWGQGTLVTVSS
VL: DIQMTQSPSSLSASVGDRVTITCRASQSVSSAVAWYQQKPGKAPKLLIYSASSLYSGVPSRFSGSRSGTDFTLTISSLQPEDFATYYCQQSVYSPVTFGQGTKVEIKR
notes: Fab; also called wild type A8
